# Test results reported in patent US12721795B2, “Personal dental care product for preventing demineralisation” (CREDENTIS AG, priority 2019, dated 2026).
# Entries after “also recorded” stand apart in the source; their conditions may differ.
# Columns and labels:
# [1] = cited from earlier work; for pH at which the peptide starts to undergo self-assembly: in solution
# [2] = Determination of fibres eluting from matrix (TEM of artificially chewed toffee-saliva); format: physicochemical; settings: toffee with assembled P11-4 (35 mg/ml), 3 mL artificial saliva, artificial chew 5 min
# Method: Sample: • Place 1 toffee with or without assembled P11-4 (35 mg/ml) in artificial saliva 3 mL (cf. Example 2) • Artificial chew for 5 min in artificial mastication equipment. • Remove supernatant (saliva) Method TEM • Dilute sample (10 mg/mL) with H2O at a ratio of 1:63 • Place 1 μL of control solution on TEM-grid Sample • Place 20 μL of water on a parafilm • Place gently the TEM Grid with dark site facing upwards on the parafilm, close to the drop • Application of 10 μL sample on TEM carbon coated grids (hexagonal) • 10 min incubation • Remove unbound sample with a paper tissue • Put the grid into 3% Uranylacetate solution 20 ul • 40 sec incubation • Remove unbound Uranylacetate with a paper tissue • Wash the grid 2 times with distilled water • pipet 5 μL droplet on top of the grid and remove it • Dry it for 20 min at RT • Introduce sample into sample holder for TEM • Analyse @ 50 kV, Vacuum at least 9*10-6 hPa
substance,measurement,setting,value
terminally modified P11-4: peptide P11-4 that is N-terminally acetylated and C-terminally amidated with a NH2-group (Ac-QQRFEWEFEQQ-NH2),pH at which the peptide starts to undergo self-assembly,[1],about 7.5
QQRFEWEFEQQ (self-assembling peptide P11-4),pH at which the peptide starts to undergo self-assembly,[1],about 7.5
same,assembly state,"[1]; ionic strength corresponding to 150 mM NaCl, neutral pH (Carrick et al., 2007)",assembled
same,assembled fibres of peptide in artificial saliva after mastication (TEM),[2],distinct fibre bundle; also recorded: maintains its assembled form
